The experiment concerns the target T1, 10th and 11th cadherin repeat domains of the Plutella xylostella cadherin (PxCR10–11), GST-tagged (Plutella xylostella).
T1 construct: Plutella xylostella cadherin, 10th and 11th CR domains, residues 1258–1602 aa; also called truncated recombinant P. xylostella cadherin; source: Escherichia coli expression system, purified (GST-Sefinose prepacked gravity column)
The experiment in a line: BLI; Octet Red 96; GST-tagged PxCR10–11 loaded onto anti-GST biosensors; toxin 38.5 to 576.9 nM in solution; 400 s association, 400 s dissociation; 10 mM GSH, 50 mM Tris, pH 8.0; 1:1 binding model. The note with it: both partners purified.

B1: Bacillus thuringiensis insecticidal protein (Bt toxin) Cry2Ab30 (natural protein)
chain: MNSVLNSGRTTICDAYNVAAHDPFSFQHKSLDTVQKEWTEWKKNNHSLYLDPIVGTVASFLLKKVGSLVGKRILSELRNLIFPSGSTNLMQDILRETEKFLNQRLNTDTLARVNAELTGLQANVEEFNRQVDNFLNPNRNAVPLSITSSVNTMQQLFLNRLPQFQMQGYQLLLLPLFAQAANLHLSFIRDVILNADEWGISAATLRTYRDYLKNYTRDYSNYCINTYQSAFKGLNTRLHDMLEFRTYMFLNVFEYVSIWSLFKYQSLLVSSGANLYASGSGPQQTQSFTSQDWPFLYSLFQVNSNYVLNGFSGARLSNTFPNIVGLPGSTTTHALLAARVNYSGGISSGDIGASPFNQNFNCSTFLPPLLTPFVRSWLDSGSDREGVATVTNWQTESFETTLGLRSGAFTARGNSNYFPDYFIRNISGVPLVVRNEDLRRPLHYNEIRNIASPSGTPGGARAYMVSVHNRKNNIHAVHENGSMIHLAPNDYTGFTISPIHATQVNNQTRTFISEKFGNQGDSLRFEQNNTTARYTLRGNGNSYNLYLRVSSIGNSTIRVTINGRVYTATNVNTTTNNDGVNDNGARFSDINIGNVVASSNSDVPLDINVTLNSGTQFDLMNIMLVPTNISPLY
In turn, B1 displayed a Kd of 28.7 nM.
